Legend:
[1] = target: bovine pancreas insulin (bovine)
[2] = target: Escherichia coli thioredoxin reductase (E. coli) (UniProt P0A9P4)
[3] = target: Escherichia coli peptide methionine sulfoxide reductase A (E. coli) (UniProt P0A744)
Escherichia coli peptide methionine sulfoxide reductase A (E. coli), sequence (P0A744 2-212): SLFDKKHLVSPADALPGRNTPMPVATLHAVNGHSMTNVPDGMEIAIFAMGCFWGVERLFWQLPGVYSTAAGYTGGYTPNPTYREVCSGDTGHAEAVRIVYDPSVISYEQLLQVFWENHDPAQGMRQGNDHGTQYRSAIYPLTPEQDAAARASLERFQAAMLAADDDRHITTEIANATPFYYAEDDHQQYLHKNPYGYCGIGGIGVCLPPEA

Escherichia coli thioredoxin reductase (E. coli), sequence (P0A9P4 2-321): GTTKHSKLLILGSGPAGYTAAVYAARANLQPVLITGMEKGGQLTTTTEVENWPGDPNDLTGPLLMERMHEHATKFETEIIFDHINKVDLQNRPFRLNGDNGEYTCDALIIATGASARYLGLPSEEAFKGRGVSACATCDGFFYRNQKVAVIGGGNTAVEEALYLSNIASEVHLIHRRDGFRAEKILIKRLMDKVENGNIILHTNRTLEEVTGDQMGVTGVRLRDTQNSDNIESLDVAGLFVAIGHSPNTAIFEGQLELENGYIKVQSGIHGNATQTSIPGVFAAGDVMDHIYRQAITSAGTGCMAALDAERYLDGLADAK
bovine pancreas insulin (bovine), sequence (P01317 25-54, chain 1 of 2): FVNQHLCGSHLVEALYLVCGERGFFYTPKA
bovine pancreas insulin (bovine), sequence (P01317 85-105, chain 2 of 2): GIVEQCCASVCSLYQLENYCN

Specific insulin reductase activity (0.13 mM insulin, 1 mM DTT, 0.5-2.0 μM Trx, onset of aggregation at OD650, pH 7.0, 25 °C) [1]: 0.155 min^−1 μM^−1 | Catalytic activity of S-MetO reduction by NADPH (Vi/[Trx]) in the reconstituted NADPH/TrxR/Trx/MsrA chain (4.5 μM TrxR, 4.5 μM MsrA, 0.1-1.0 μM Trx, pH 7.0, 25 °C) [2]: 0.22 min^−1 | k1: rate constant of Trx–MsrA mixed disulfide formation (stopped-flow fluorescence, 1 μM oxidized MsrA, 5-100 μM reduced Trx, pH 7.0, 25 °C) [3]: 221000 M^−1 s^−1 | k2: rate constant of mixed disulfide dissociation to reduced MsrA and oxidized Trx (stopped-flow fluorescence, pH 7.0, 25 °C) [3]: 3.63 s^−1
B1: human thioredoxin (enzyme)
chain: MVKQIESKTAFQEALDAAGDKLVVVDFSATWCGPCKMIKPFFHSLSEKYSNVIFLEVDVDDCQDVASECEVKCMPTFQFFKKGQKVGEFSGANKEKLEATINELV

Reference: article PMC6755812
